Data published in the supplement of paper PMC9732359.
± gives the uncertainty stated by the source.

Experiment: protein stability index of a GFP-peptide fusion (yeast GPS) (PSI 1-4); higher = more stable; sorted into four equal gates, so the index is relative within each strain
Outline: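 For each peptide, the protein stability index sums the read frequency in every gate after multiplying it by the gate number. Read frequencies came from plasmids that were PCR-amplified from each gate and Illumina-sequenced, with reads assigned to strains by barcodes. The gates were four equal bins of GFP/Cherry fluorescence ratio applied to mid-log yeast in leucine-free medium carrying a pooled library of tiled 17-residue yeast protein peptides fused downstream of GFP on a Cherry-expressing plasmid.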

Sequence | protein stability index (doa10∆) | protein stability index (pdr5∆) | protein stability index (san1∆) | protein stability index (ubr1∆)
ELLSMGNAKESKALLRE [SRP72] | 2.98 ± 0.12 | 2.81 ± 0.21 | 2.91 ± 0.19 | 3.13 ± 0.16
GVDNLRRMGILKKILDQ [RPO31] | 2.48 ± 0.1 | 2.7 ± 0.11 | 2.4 ± 0.083 | 2.96 ± 0.04
YVGNKRLELAGQLISLL [RET1] | 2.84 ± 0.083 | 3.25 ± 0.092 | 2.7 ± 0.074 | 2.92 ± 0.079
FKKAAPSPISHVAEIRS [RPB2] | 1.92 ± 0.051 | 1.94 ± 0.046 | 1.77 ± 0.058 | 1.81 ± 0.036
LDSNFNLQREIDQAHVS [RPN14] | 2.49 ± 0.045 | 2.75 ± 0.061 | 2.56 ± 0.059 | 2.65 ± 0.054
QHTTESDNISRKYEISF [RPB2] | 3.16 ± 0.11 | 3.17 ± 0.088 | 2.92 ± 0.098 | 3.2 ± 0.11
NRQAAASVVPSASSLVI [RPL12A] | 1.73 ± 0.03 | 2.17 ± 0.038 | 1.98 ± 0.049 | 1.83 ± 0.032
FEQTAFSRHAQQQTSTF [SIR4] | 1.94 ± 0.07 | 2.32 ± 0.092 | 1.79 ± 0.093 | 2.01 ± 0.055
QKLWLLECQLFPQGLNI [SSN8] | 2.16 ± 0.068 | 1.92 ± 0.06 | 1.66 ± 0.13 | 2.11 ± 0.076
KSHSTVSSSSRHHRKTE [ISW2] | 2.7 ± 0.055 | 2.69 ± 0.043 | 2.14 ± 0.052 | 2.88 ± 0.041
AAGIWTCSCCKKTVAGG [RPL43A] | 2.42 ± 0.13 | 3.17 ± 0.11 | 3.02 ± 0.097 | 2.99 ± 0.074
IFDGNYGESDIHFREHQ [YMR129W/POM152] | 3.26 ± 0.11 | 3.21 ± 0.21 | 3.58 ± 0.2 | 3.05 ± 0.15
GRLDRKIEFPLPSEDSR [RPT5] | 3.36 ± 0.15 | 2.91 ± 0.21 | 2.71 ± 0.24 | 3.56 ± 0.12
DNETKAMLINLILRDFL [RPN3] | 2.55 ± 0.095 | 2.66 ± 0.087 | 2.58 ± 0.069 | 2.81 ± 0.075
WKYEDVVAKLEDKRKVR [RPL16B] | 3.12 ± 0.064 | 2.32 ± 0.059 | 2.36 ± 0.093 | 2.02 ± 0.045
ERNNIGEICKNYELEKI [YDL116W/NUP84] | 2.91 ± 0.14 | 2.82 ± 0.095 | 2.94 ± 0.09 | 2.62 ± 0.059
GGNNNNNSTGIANDNVI [SWI1] | 2.87 ± 0.057 | 3 ± 0.053 | 2.94 ± 0.05 | 3.14 ± 0.044
KNAAESSYMGKHWTEKS [PRP28] | 3.17 ± 0.12 | 3.24 ± 0.17 |  | 3.46 ± 0.11
TDYLYRRLHDENLMVQR [YCS4] | 2.44 ± 0.089 | 2.08 ± 0.063 | 2.45 ± 0.067 | 2.38 ± 0.076
FITAKDKYKLYPVRIPR [YJR042W/NUP85] | 2.87 ± 0.06 | 2.73 ± 0.087 | 3.06 ± 0.077 | 2.89 ± 0.069
NNKKVVGTAIDSILNYA [ECM29] | 2.4 ± 0.21 | 2.75 ± 0.12 |  | 3.06 ± 0.083
LEDEKMKFQESLKKVDE [SMC4] |  | 2.08 ± 0.26 |  | 
TAGKTSVKSARTSTRGR [SNF2] | 3.44 ± 0.058 | 3.37 ± 0.052 | 3.12 ± 0.042 | 3.206 ± 0.031
VARIPRVGGGGTGRSGQ [RPL4A] | 3.46 ± 0.15 | 3.39 ± 0.13 | 3.48 ± 0.072 | 2.57 ± 0.086
PNNSRDDYKDLTCSLYE [IRR1] | 3.11 ± 0.069 | 2.88 ± 0.069 | 3.18 ± 0.052 | 3.24 ± 0.087
AILLIINLTQTYGISVV [NUT1] | 1.53 ± 0.049 | 1.34 ± 0.043 | 1.7 ± 0.081 | 1.43 ± 0.04

Sequence | protein stability index (doa10∆) | protein stability index (pdr5∆) | protein stability index (san1∆) | protein stability index (ubr1∆)
FMEAQGAGIQIIMQADL [FAS2] | 2.36 ± 0.094 | 2.33 ± 0.12 | 2.08 ± 0.24 | 2.11 ± 0.083
LQGDLTFTKKCLENARS [SIR4] | 3.23 ± 0.064 | 3.11 ± 0.059 | 3.05 ± 0.047 | 2.96 ± 0.041
AAGSYYVEAQHKLVFVV [RPL7A] | 2.33 ± 0.072 | 2.74 ± 0.048 | 2.26 ± 0.069 | 2.4 ± 0.044
RNKSAANNDINSLLSNF [YDL088C/ASM4] | 2.94 ± 0.15 | 3.07 ± 0.095 | 2.99 ± 0.091 | 3.02 ± 0.056
NDRESVLTNIEVYRTSL [SMC3] | 2.94 ± 0.13 | 3.21 ± 0.15 | 3.05 ± 0.12 | 2.97 ± 0.081
IRKYGLNICRQCFREKA [RPS29A] | 1.59 ± 0.067 | 1.67 ± 0.045 | 1.32 ± 0.11 | 1.73 ± 0.065
NSKDHKKITLQLLDTSN [SIN4] | 3.07 ± 0.07 | 3.39 ± 0.078 | 3.04 ± 0.074 | 2.96 ± 0.053
VFSHAQTAVTCESCSTV [RPS27B] | 1.57 ± 0.13 | 2.46 ± 0.14 | 2.24 ± 0.15 | 2.04 ± 0.11
LNLDSLLVDQKQLNSLR [SMD1] | 2.51 ± 0.051 | 2.79 ± 0.059 | 2.98 ± 0.067 | 2.51 ± 0.062
IVEEDLEPFEASKETAE [FAS2] | 3.42 ± 0.18 | 3.21 ± 0.11 | 3.1 ± 0.087 | 3.25 ± 0.089
LLDAGCKVVAEMIRGRS [SKP1] |  | 2.06 ± 0.14 |  | 1.91 ± 0.1
MLLLNDSVENSSNILED [SRB8] | 2.65 ± 0.078 | 2.57 ± 0.078 | 2.58 ± 0.065 | 2.38 ± 0.061
SQKHNGRILKWLWPLCR [CDC53] | 1.52 ± 0.063 | 1.33 ± 0.071 | 1.35 ± 0.094 | 1.12 ± 0.04
MSSAAEKKPASKAPAEK [HTB2] | 2.74 ± 0.064 | 3.3 ± 0.081 | 2.69 ± 0.08 | 2.91 ± 0.054
LFGSKPQGSTTNGGLFG [YGR119C/NUP57] | 3.38 ± 0.086 | 3.47 ± 0.067 | 3.43 ± 0.045 | 3.28 ± 0.037
FKKDLVIVLSNISHLLE [SWI1] | 1.86 ± 0.048 | 1.63 ± 0.067 | 1.75 ± 0.078 | 1.93 ± 0.061
MAIEIINDIRDDDIEKQ [YCG1] |  | 3.07 ± 0.16 | 3.19 ± 0.11 | 3.27 ± 0.14
SFLMRQFTRFFLLVPSK [ECM29] | 2.03 ± 0.067 | 2.03 ± 0.057 | 1.75 ± 0.12 | 2.31 ± 0.05
EDIVGALRRRVGPSEQN [REC8] | 2.28 ± 0.074 | 1.58 ± 0.052 | 2.71 ± 0.12 | 2.43 ± 0.075
KEVSSFLMGIFNSVVNL [MTR3] | 2.83 ± 0.057 | 2.91 ± 0.049 | 2.88 ± 0.056 | 3 ± 0.043
NKINSRNSWNFALIDYF [BRN1] | 2.13 ± 0.2 | 1.27 ± 0.075 | 1.11 ± 0.11 | 1.1 ± 0.073
SLLSLVGHLSILPQQSK [ECM29] | 2.21 ± 0.048 | 2 ± 0.052 | 1.94 ± 0.058 | 1.64 ± 0.027
QAQQAQQAQARLQQGRR [SNF2] | 3.02 ± 0.08 | 3.11 ± 0.092 | 2.88 ± 0.048 | 3.02 ± 0.061
EINSVGNPGLPQYQYQR [ITC1] | 2.66 ± 0.11 | 2.59 ± 0.077 | 2.92 ± 0.057 | 3.16 ± 0.067
ISPKGGRRISENGQRDL [RPS19A] |  | 2.81 ± 0.2 | 3.19 ± 0.13 | 2.86 ± 0.11
NIFSEAVKNKYNVGKQL [PRP28] | 1.55 ± 0.085 | 2.43 ± 0.11 | 1.82 ± 0.14 | 2.37 ± 0.076
